± gives the uncertainty stated by the source.
B1: POU domain, class 3, transcription factor 2, residues 356 to 411; numbered along this chain, P20265 (parent)
chain: KKRTSIEVSVKGALESHFLKCPKPSAQEITSLADSLQLEKEVVRVWFCNRRQKEKR

Variants of: B1
Experiment: abundance fitness (aPCA) (normalised: wild type 0, dead -1); higher = more abundant; growth selection in yeast, the domain comes from the species named
Settings: Homo sapiens

| Variant | abundance fitness |
| --- | --- |
| KKRTSIEVSVKGALESSFLKCPKPSAQEITSLADSLQLEKEVVRVWFCNRRQKEKR | 0.089 ± 0.095 |
| KKWTSIEVSVKGALESHFLKCPKPSAQEITSLADSLQLEKEVVRVWFCNRRQKEKR | -0.273 ± 0.15 |
| KKRTSIEVSVKGALERHFLKCPKPSAQEITSLADSLQLEKEVVRVWFCNRRQKEKR | -0.055 ± 0.072 |
| KKRTSIEVSVKGALESHFLKCPKPSAQEITSLADSLQLEKEVVRVWFCNRRQLEKR | -0.18 ± 0.18 |
| KKRTSIEVSVKGALESHFLKCPKPSAQQITSLADSLQLEKEVVRVWFCNRRQKEKR | -0.402 ± 0.13 |
| KKRTSIEVSVKGALESHMLKCPKPSAQEITSLADSLQLEKEVVRVWFCNRRQKEKR | -1.02 ± 0.23 |
| KKRTSIEVSVKGALESHFLKCPKPSAQEITSLADSLQLEKEVIRVWFCNRRQKEKR | -0.197 ± 0.12 |
| KKRTSIEVSVKGALESHFLKCPKPSAQEITSLADCLQLEKEVVRVWFCNRRQKEKR | -0.133 ± 0.13 |
| KKRTSIEVSVKGALESHFLKCPKPSAQEITSLADSLQLEKEVVRVWFLNRRQKEKR | -0.059 ± 0.092 |
| KKRTSIEVSVKGALESHFLKCPKPSAQEITSLADSLQLEKEVVRVKFCNRRQKEKR | -0.845 ± 0.18 |
| KKRTSIEVSVKGALESHFLKCPKPSAQEITSLADSLQLEKEVVRTWFCNRRQKEKR | 0.001 ± 0.088 |
| KKRTSIEVSVKGALESHFLKCPKPSAQEITSLADKLQLEKEVVRVWFCNRRQKEKR | 0.136 ± 0.15 |
| KKRTSIEVSVKGALESHFLKCPKPIAQEITSLADSLQLEKEVVRVWFCNRRQKEKR | -0.793 ± 0.23 |
| KKRTSPEVSVKGALESHFLKCPKPSAQEITSLADSLQLEKEVVRVWFCNRRQKEKR | -0.213 ± 0.16 |
| KKRTSIEVSVKGALESHFLKCPKPSAQEITSLADSLQLEKEVVRYWFCNRRQKEKR | -0.152 ± 0.11 |
| KKRMSIEVSVKGALESHFLKCPKPSAQEITSLADSLQLEKEVVRVWFCNRRQKEKR | -0.015 ± 0.1 |
| KKRTSIEVSVKGALESHFLKCPQPSAQEITSLADSLQLEKEVVRVWFCNRRQKEKR | -0.002 ± 0.12 |
| KKRTSIEVSVKGALESHFLKCPKPSAMEITSLADSLQLEKEVVRVWFCNRRQKEKR | -0.35 ± 0.14 |
| KKRTSIEVSVKGALESHFLKCPKPSAQEITSLADSLQLEKRVVRVWFCNRRQKEKR | -0.337 ± 0.078 |
| KKRTSIEVSVKGATESHFLKCPKPSAQEITSLADSLQLEKEVVRVWFCNRRQKEKR | -0.953 ± 0.22 |
| KKRTSIEVSVKLALESHFLKCPKPSAQEITSLADSLQLEKEVVRVWFCNRRQKEKR | 0.117 ± 0.084 |
| KKRTSIEVSVKGALESHFLKCPKPSAQEITSLADSLQLEKEVVRVWSCNRRQKEKR | -0.871 ± 0.12 |
| KKRTSIEVSVKGALESHFLKCPKPSAQEIKSLADSLQLEKEVVRVWFCNRRQKEKR | 0.008 ± 0.14 |
| KKRTSIEVSVKGALESHFLKCPKPSAQEITSLADSLQLEKHVVRVWFCNRRQKEKR | -0.168 ± 0.19 |

| Variant | abundance fitness |
| --- | --- |
| KKRTSIEVSVKGALESHFLKCPKPSAQEITSLADSLQLEKEVVRVHFCNRRQKEKR | -0.927 ± 0.23 |
| KKRTSIEVSVKGALESKFLKCPKPSAQEITSLADSLQLEKEVVRVWFCNRRQKEKR | -0.364 ± 0.13 |
| KKRTSIEVSVKGALESHFLKCPKPSAQEITSLAMSLQLEKEVVRVWFCNRRQKEKR | 0.01 ± 0.13 |
| KKATSIEVSVKGALESHFLKCPKPSAQEITSLADSLQLEKEVVRVWFCNRRQKEKR | -0.168 ± 0.082 |
| KKRTSIEVSVKHALESHFLKCPKPSAQEITSLADSLQLEKEVVRVWFCNRRQKEKR | -0.015 ± 0.099 |
| KKRTSIEVPVKGALESHFLKCPKPSAQEITSLADSLQLEKEVVRVWFCNRRQKEKR | -0.041 ± 0.19 |
| KGRTSIEVSVKGALESHFLKCPKPSAQEITSLADSLQLEKEVVRVWFCNRRQKEKR | -0.087 ± 0.1 |
| KKRTSIEVSVKGALESHFLKCPKPSAQEITSLADSLQLEKEVVRVWFCNRRAKEKR | 0.039 ± 0.1 |
| KKRTKIEVSVKGALESHFLKCPKPSAQEITSLADSLQLEKEVVRVWFCNRRQKEKR | 0.14 ± 0.12 |
| KYRTSIEVSVKGALESHFLKCPKPSAQEITSLADSLQLEKEVVRVWFCNRRQKEKR | -0.06 ± 0.28 |
| KKRTSIEVSVKGALESHFLKCPKPSAQEITSLADSLQLEKQVVRVWFCNRRQKEKR | -0.26 ± 0.14 |
| KKRTSIEVSVKGALESHFLKCPKPSTQEITSLADSLQLEKEVVRVWFCNRRQKEKR | -0.033 ± 0.12 |
| KKRTSIETSVKGALESHFLKCPKPSAQEITSLADSLQLEKEVVRVWFCNRRQKEKR | 0.011 ± 0.11 |
| KKRTSIEVSVKGALESHFLKCLKPSAQEITSLADSLQLEKEVVRVWFCNRRQKEKR | -0.919 ± 0.11 |
| KKRTSIEVSVKGALESHFLKCKKPSAQEITSLADSLQLEKEVVRVWFCNRRQKEKR | -0.348 ± 0.13 |
| KKRTSIEVSVKGALESHFLKCPKPSNQEITSLADSLQLEKEVVRVWFCNRRQKEKR | -0.097 ± 0.17 |
| KKRTSIEVSVKGALESHFLKCGKPSAQEITSLADSLQLEKEVVRVWFCNRRQKEKR | -0.46 ± 0.09 |
| KKRTSIEVSVKGALESHFLKCPKPSAQEITSLAFSLQLEKEVVRVWFCNRRQKEKR | 0.031 ± 0.16 |
| KKRTSIEVSVKGALESHFLKCPKPSAQEITSLADSLQLEKEVVRVWFCNRRQTEKR | 0.024 ± 0.26 |
| KKRTRIEVSVKGALESHFLKCPKPSAQEITSLADSLQLEKEVVRVWFCNRRQKEKR | -0.105 ± 0.068 |
| KKRTSIEVSVKGALESHFLKCPKPSAQEITSLADSLQLEKEVVRVWFCNRRQGEKR | -0.112 ± 0.44 |
| KKRTSIEVSVKGALESHFLKCPKPSAQEITSLADSLQLEKEVVRVWFDNRRQKEKR | -0.053 ± 0.14 |
| KKRTSIEVSVKGALESHFLKCPKPSAQEITSLTDSLQLEKEVVRVWFCNRRQKEKR | -0.83 ± 0.17 |

— the Human Domainome abundance scans (Beltran et al. 2025)
